Data set [1] is described as follows: immunoblot of total NKCC2 ± ManIA co-expression, HEK cells. Particulars: glycan lost; control: WT NKCC2. A general note: In western blotting, separated proteins are transferred to a membrane and probed.
A short description of data set [2]: immunoblot of NKCC2 ± ManIA co-expression, OKP cells. Particulars: glycan changed form; control: untreated cells.

B1: NKCC2: N442Q/N452Q (protein)
parent chain: MSVSIPSNSVPSSASRFQVHVINEGHGSAAAVGDSADPPHYEETSFGDEAQNRLRISFRPGNQECYDNFLQTGETAKTDTTFHAYDSHTNTYYLQTFGHNTMDAVPKIEYYRNTGSVSGPKVNRPSLLEIHEQLAKNVTVAPGSADRVANGDGMPGDEQAENKEEDMTGVVKFGWVKGVLVRCMLNIWGVMLFIRLSWIVGEAGIGLGVLIILLSTMVTSITGLSTSAIATNGFVRGGGAYYLISRSLGPEFGGSIGLIFAFANAVAVAMYVVGFAETVVDLLKESDSMMVDPTNDIRIIGSITVVILLGISVAGMEWEAKAQVILLVILLIAIANFFIGTVIPSNNEKKSRGFFNYQASIFAENFGPSFTKGEGFFSVFAIFFPAATGILAGANISGDLEDPQDAIPRGTMLAIFITTVAYIGVAICVAACVVRDATGSMNDTIVSGMNCNGSAACGLGYDFSRCQHEPCQYGLMNNFQVMSMVSGFGPLITAGIFSATLSSALASLVSAPKVFQALCKDNIFKGLQFFAKGYGKNNEPLRGYFLTFVIAMAFILIAELNVIAPIISNFFLASYALINFSCFHASYAKSPGWRPAYGIYNMWVSLFGAILCCAVMFVINWWAAVITYVIELFLYIYVTYKKPDVNWGSSTQALSYVSALDNALELTTVEDHVKNFRPQCIVLTGGPMTRPALLDITHAFTKNSGLCICCEVFVGPRKLCVKEMNSGMAKKQAWLIKNKIKAFYAAVAADCFRDGVRSLLQASGLGRMKPNTLVIGYKKNWRKAPLSELENYVGIIHDAFDFEIGVVIVRISQGFDISPVLQVQDELEKLEQERLALEAAIKDNECEEGKGGIRGLFKKAGKLNITKPAPKKDGNISSIQSMHVGEFNQKLVEASAQFKKKQGKGTIDVWWLFDDGGLTLLIPYILTLRKKWKDCKLRIYVGGKITRIEEEKISMASLLSKFRIKFADIHIIGDINIKPNKESWKVFEEMIEPYRLHESHKDLTTAEKLKRESPWKITDAELEAVKEKSYRQVRLNELLQEHSRAANLIVLSLPVARKGSISDLLYMAWLEILTKNLPPVLLVRGNHKNVLTFYS
Take B1: in data set [1], the “other: ManIA-induced down-regulation of NKCC2 protein” value is reported as “decreases”.

B2: NKCC2: kifunensine 25 µM, 6 h (protein)
parent chain: MSVSIPSNSVPSSASRFQVHVINEGHGSAAAVGDSADPPHYEETSFGDEAQNRLRISFRPGNQECYDNFLQTGETAKTDTTFHAYDSHTNTYYLQTFGHNTMDAVPKIEYYRNTGSVSGPKVNRPSLLEIHEQLAKNVTVAPGSADRVANGDGMPGDEQAENKEEDMTGVVKFGWVKGVLVRCMLNIWGVMLFIRLSWIVGEAGIGLGVLIILLSTMVTSITGLSTSAIATNGFVRGGGAYYLISRSLGPEFGGSIGLIFAFANAVAVAMYVVGFAETVVDLLKESDSMMVDPTNDIRIIGSITVVILLGISVAGMEWEAKAQVILLVILLIAIANFFIGTVIPSNNEKKSRGFFNYQASIFAENFGPSFTKGEGFFSVFAIFFPAATGILAGANISGDLEDPQDAIPRGTMLAIFITTVAYIGVAICVAACVVRDATGSMNDTIVSGMNCNGSAACGLGYDFSRCQHEPCQYGLMNNFQVMSMVSGFGPLITAGIFSATLSSALASLVSAPKVFQALCKDNIFKGLQFFAKGYGKNNEPLRGYFLTFVIAMAFILIAELNVIAPIISNFFLASYALINFSCFHASYAKSPGWRPAYGIYNMWVSLFGAILCCAVMFVINWWAAVITYVIELFLYIYVTYKKPDVNWGSSTQALSYVSALDNALELTTVEDHVKNFRPQCIVLTGGPMTRPALLDITHAFTKNSGLCICCEVFVGPRKLCVKEMNSGMAKKQAWLIKNKIKAFYAAVAADCFRDGVRSLLQASGLGRMKPNTLVIGYKKNWRKAPLSELENYVGIIHDAFDFEIGVVIVRISQGFDISPVLQVQDELEKLEQERLALEAAIKDNECEEGKGGIRGLFKKAGKLNITKPAPKKDGNISSIQSMHVGEFNQKLVEASAQFKKKQGKGTIDVWWLFDDGGLTLLIPYILTLRKKWKDCKLRIYVGGKITRIEEEKISMASLLSKFRIKFADIHIIGDINIKPNKESWKVFEEMIEPYRLHESHKDLTTAEKLKRESPWKITDAELEAVKEKSYRQVRLNELLQEHSRAANLIVLSLPVARKGSISDLLYMAWLEILTKNLPPVLLVRGNHKNVLTFYS
As to B2, the “other: ManIA-induced down-regulation of NKCC2 protein” value in data set [2] is on record as “decreases”.
